Results: publication PMC4321167 (2015)
One block for each binder: values may come before it.

Target: T1, GST-FD (Arabidopsis thaliana (Mouse-ear cress), UniProt Q84JK2)
T1 chain: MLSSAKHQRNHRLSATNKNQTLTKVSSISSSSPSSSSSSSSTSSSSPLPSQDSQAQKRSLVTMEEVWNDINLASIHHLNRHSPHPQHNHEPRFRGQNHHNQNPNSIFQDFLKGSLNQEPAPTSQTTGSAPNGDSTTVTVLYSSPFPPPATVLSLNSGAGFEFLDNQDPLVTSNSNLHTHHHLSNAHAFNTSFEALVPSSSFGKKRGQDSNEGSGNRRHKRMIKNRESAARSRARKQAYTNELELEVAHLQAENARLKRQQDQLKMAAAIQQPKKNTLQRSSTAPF
Test: GST pull-down

binding result: binds
B1: Trx-His-CPK6 (protein)
chain: MGNSCRGSFKDKIYEGNHSRPEENSKSTTTTVSSVHSPTTDQDFSKQNTNPALVIPVKEPIMRRNVDNQSYYVLGHKTPNIRDLYTLSRKLGQGQFGTTYLCTDIATGVDYACKSISKRKLISKEDVEDVRREIQIMHHLAGHKNIVTIKGAYEDPLYVHIVMELCAGGELFDRIIHRGHYSERKAAELTKIIVGVVEACHSLGVMHRDLKPENFLLVNKDDDFSLKAIDFGLSVFFKPGQIFKDVVGSPYYVAPEVLLKHYGPEADVWTAGVILYILLSGVPPFWAETQQGIFDAVLKGYIDFDTDPWPVISDSAKDLIRKMLCSSPSERLTAHEVLRHPWICENGVAPDRALDPAVLSRLKQFSAMNKLKKMALKVIAESLSEEEIAGLRAMFEAMDTDNSGAITFDELKAGLRRYGSTLKDTEIRDLMEAADVDNSGTIDYSEFIAATIHLNKLEREEHLVSAFQYFDKDGSGYITIDELQQSCIEHGMTDVFLEDIIKEVDQDNDGRIDYEEFVAMMQKGNAGVGRRTMKNSLNISMRDV

binding result: binds
B2: Trx-His-CPK33 (protein)
chain: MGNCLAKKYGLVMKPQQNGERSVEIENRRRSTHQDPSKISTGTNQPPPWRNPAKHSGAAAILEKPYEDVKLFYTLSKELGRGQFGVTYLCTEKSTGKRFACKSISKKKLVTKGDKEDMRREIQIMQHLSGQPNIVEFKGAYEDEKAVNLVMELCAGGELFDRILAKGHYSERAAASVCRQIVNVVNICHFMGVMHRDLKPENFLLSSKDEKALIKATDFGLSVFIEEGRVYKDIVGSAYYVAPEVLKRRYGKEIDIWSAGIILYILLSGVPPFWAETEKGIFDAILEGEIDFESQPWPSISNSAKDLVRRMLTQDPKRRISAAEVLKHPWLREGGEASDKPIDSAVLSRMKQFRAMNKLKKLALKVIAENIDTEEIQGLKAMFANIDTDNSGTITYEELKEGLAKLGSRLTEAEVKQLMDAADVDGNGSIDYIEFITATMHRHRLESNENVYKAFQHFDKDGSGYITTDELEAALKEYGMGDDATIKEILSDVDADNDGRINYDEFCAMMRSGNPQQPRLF
